Data as given in article PMC9481602 (Nature Communications, 2022).

Columns and labels:
nonmodified ubiquitin = target: T1, nonmodified ubiquitin (UniProt P0CG48 1-76); test: NMR titration; unlabelled Ubiquilin-2 UBA domain added stepwise to 15N-labelled Ub variants (33 µM Ub 11AcK and nonmodified Ub; 157 µM the other variants); 1H-15N HSQC, 298 K, 18.8 T, 20 mM NaH2PO4 pH 6.8, 5% D2O; global fit of six residues assuming 1:1 binding; conditions: both partners purified
T1 construct: ubiquitin (Ub), the 76-residue cut product of its precursors; codon-optimized cDNA; 15N isotopically labelled in the NMR titration; also called Ub (wt); source: E. coli, purified (HisTrap, His-tag removed with UCHL3, HiTrap SP); not shown: His6, C-terminal, cleaved

[1] = target: T2, ubiquitin acetylated at K11 (UniProt P0CG48 1-76, acetyllysine (AcK) at position 11); test: as above; conditions: both partners purified
T2 construct: ubiquitin (Ub), the 76-residue cut product of its precursors; codon-optimized cDNA; K11 replaced by acetyllysine; 15N isotopically labelled in the NMR titration; also called Ub 11AcK; source: E. coli B834 (DE3), amber suppression with AcK-RS/tRNA, purified (HisTrap, His-tag removed with UCHL3, HiTrap SP); not shown: His6, C-terminal, cleaved

B1: UBA domain of human Ubiquilin-2 (domain or fragment, UniProt Q9UHD9 581-621, looked up)
chain: RFQQQLEQLNAMGFLNREANLQALIATGGDINAAIERLLGS
notes: Ubiquilin-2 (Chap1, hPLIC-2), human, UBA domain; Unlabelled; also called UQ2-UBA; Chap1; source: E. coli BL21 (DE3) Rosetta, purified (Glutathione Sepharose, TEV cleavage, SEC); not shown: GST, N-terminal, cleaved
Which Kd (nonmodified ubiquitin) does the source give for B1 here?
The Kd was 2 ± 0.4 µM.

And the Kd [1]?
The Kd was 8 ± 0.8 µM.
